Changes are numbered by the printed parent chain.

Assay [1] addresses T1, cynomolgus 5T4 on cells (cynomolgus macaque, UniProt Q4R8Y9 35-420).
T1 construct: whole, on cells; also called CHO-K1/cynomolgus 5T4
T1 sequence (looked up): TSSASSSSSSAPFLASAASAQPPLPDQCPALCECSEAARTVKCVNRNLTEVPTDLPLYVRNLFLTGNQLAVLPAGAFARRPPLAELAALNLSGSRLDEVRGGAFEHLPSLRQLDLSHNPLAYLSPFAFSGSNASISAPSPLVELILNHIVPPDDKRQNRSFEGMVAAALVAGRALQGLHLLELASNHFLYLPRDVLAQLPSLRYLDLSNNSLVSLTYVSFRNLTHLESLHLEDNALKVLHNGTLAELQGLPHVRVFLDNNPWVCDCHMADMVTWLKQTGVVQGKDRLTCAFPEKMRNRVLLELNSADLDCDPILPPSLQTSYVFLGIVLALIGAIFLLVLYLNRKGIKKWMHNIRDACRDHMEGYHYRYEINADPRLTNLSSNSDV
In words: flow cytometry, CHO-K1/cynomolgus 5T4 transfectants (FIG. 7). The method, then:
(§1) Binding studies were performed by standard flow cytometry-based staining procedures two cell lines expressing 5T4:CHO-K1 cells (obtained from Alligator) transduced with human or cynomolgus macaque 5T4 and SKOV-3 human ovarian adenocarcinoma cells which express (human) 5T4. All labeling and washes were performed in U-bottom 96-well plates in saline buffer with 0.1% BSA and 2 mM EDTA. Cell were plated at approximately 100,000 cells per well and incubated with a range of 100 nM to 0.05 nM concentrations of test molecules in 50 μL volume/well, for 30 minutes on ice. Cells were washed three times then incubated for another 30 min on ice with fluorescently-labeled secondary polyclonal antibody, F(ab′)² goat anti-human IgG (Jackson ImmunoResearch Laboratories). The cells were then washed twice and the samples acquired in a BD LSRII or a Symphony A3 flow cytometer. The sample files were analyzed using FlowJo software; the mean fluorescence intensity (MFI-mean) or median fluorescence intensity (MFI-median) of the live population of cells in each well was calculated after gating on live cells (forward vs side scatter). Nonlinear regression analysis to determine EC₅₀ values was performed in GraphPad Prism 6® graphing and statistics software.
Background: In flow cytometry, cells or beads pass a laser one at a time.

Assay [2] has as its target T2, recombinant human 5T4 extracellular domain (human, UniProt Q13641 32-355).
T2 construct: The entry starts at Met 1; also called Hu 5T4; 5T4 ECD
T2 sequence: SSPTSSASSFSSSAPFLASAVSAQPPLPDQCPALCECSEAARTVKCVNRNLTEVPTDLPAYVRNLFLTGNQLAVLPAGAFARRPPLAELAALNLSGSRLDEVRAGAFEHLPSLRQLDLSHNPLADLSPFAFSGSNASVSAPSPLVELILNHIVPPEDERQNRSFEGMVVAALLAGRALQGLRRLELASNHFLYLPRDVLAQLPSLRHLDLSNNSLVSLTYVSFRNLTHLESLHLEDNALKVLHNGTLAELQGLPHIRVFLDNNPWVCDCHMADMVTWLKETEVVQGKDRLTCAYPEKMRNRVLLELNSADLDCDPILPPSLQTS
In words: SPR, Biacore T200, bispecific captured by anti-human IgG, monomeric ECD injected, 1:1 model. The method, then: (§2) Goat anti-human IgG F(ab′)2 fragment (Jackson ImmunoResearch) at 20 μg/mL in 10 mM sodium acetate (pH 4.5) was immobilized at a density of 2000 response units (RU) onto the flow cell of a CM5 research-grade sensor chip (GE) by standard amine coupling chemistry. Each bispecific variant at 200 nM in HBS-EP+ buffer was captured in the flow cell with the immobilized anti-human IgG at a flow rate of 50 μL/min for 60 sec to reach ˜500 RU response, leaving one flow cell surface unmodified as the reference. Following a 30 sec stabilization period, four different concentrations of each ECD (0, 20, 60, and 180 nM) were injected at 50 μL/min for either 120 sec followed by a 240 sec dissociation period (for 5T4) or 90 sec followed by a 180 sec dissociation period (for 4-1BB). Regeneration was achieved by duplicate injections of 10 mM glycine (pH 1.5) at a flow rate of 50 μL/min for 30 sec followed by HBS-EP+ buffer stabilization for 1 min.
(§3) Sensorgrams obtained from kinetic SPR measurements were analyzed by the double subtraction method. The signal from the reference flow cell was subtracted from the analyte binding response obtained from flow cells with immobilized or captured ligands. Buffer reference responses were then averaged from multiple injections. The averaged buffer reference responses were then subtracted from analyte binding responses, and the final double-referenced data were analyzed with Biacore T200 Evaluation software (2.0, GE), globally fitting data to derive kinetic parameters. All sensorgrams were fitted using a simple one-to-one binding model.
(In general: SPR reads the build-up and loss of mass on a sensor chip optically.)

In assay [3] the target is T3, recombinant human CD137 extracellular domain (human, UniProt Q07011 24-186).
T3 construct: The entry starts at Met 1; also called Hu CD137; 4-1BB ECD
The assay is described as above. The method, then:
as §2, §3

The target in assay [4] is T4, human 5T4 on cells (human, UniProt Q13641 32-420).
T4 construct: Human 5T4 on transfected cells (CHO-K1, CT26, B16) or endogenous on human tumour lines; the cell line is named under assay; also called trophoblast glycoprotein; TPBG
T4 sequence: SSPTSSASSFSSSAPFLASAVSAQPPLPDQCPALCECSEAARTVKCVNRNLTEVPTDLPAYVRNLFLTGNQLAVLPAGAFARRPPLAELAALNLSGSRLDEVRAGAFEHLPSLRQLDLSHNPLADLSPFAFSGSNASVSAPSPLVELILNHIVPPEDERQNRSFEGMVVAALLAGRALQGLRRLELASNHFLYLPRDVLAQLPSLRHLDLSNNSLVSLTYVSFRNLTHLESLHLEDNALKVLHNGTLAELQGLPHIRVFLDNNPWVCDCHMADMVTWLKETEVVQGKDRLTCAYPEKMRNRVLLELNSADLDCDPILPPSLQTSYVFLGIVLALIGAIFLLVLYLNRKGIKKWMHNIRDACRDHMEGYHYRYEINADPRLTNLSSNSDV
In words: flow cytometry, SKOV-3 cells (FIG. 6). The method, then: as §1
(§4) The differences in EC₅₀ values between constructs were more evident when binding assays were conducted on SKOV-3 cells. […]

Assay [5] deals with T4, human 5T4 on cells. The experiment in a line: flow cytometry, CHO-K1/human 5T4 cells (FIG. 4). The method, then: as §1, §4
The target of assay [6] is T5, CD137 / 4-1BB (soluble antigen, form not stated) (UniProt Q07011 24-186, limits assumed).
T5 construct: also called biotinylated 4-1BB antigen; CD137 in ELISA
In words: ELISA. On the technique in general: ELISA stands for enzyme-linked immunosorbent assay.

Assay [7] concerns the target T1, cynomolgus 5T4 on cells. The experiment in a line: flow cytometry, CHO-K1/cynomolgus 5T4 transfectants (FIG. 14). The method, then:
as §1
All the constructs bound with EC₅₀ values in the range of 1 to 3 nM. […]

B1: ALG.APV-187 (bispecific antibody)
chain: EVQLLESGGGLVQPGGSLRLSCAASGFTFSHGSMYWVRQAPGKGLEWVSSISSGSGSTYYADSVKGRFTISHDNSKNTLYLQMNSLRAEDTAVYYCARSSYYGSYYSIDYWGQGTLVTVSSGGGGSGGGGSGGGGSGGGGSDIQMTQSPSSLSASVGDRVTITCRASQSISSYLNWYQQKPGKAPKLLIYAASSLQSGVPSRFSGSGSGTDFTLTISSLQPEDFATYYCQQYYDNLPTFGQGTKLEIKSSEPKSSDKTHTCPPCPAPEAAGAPSVFLFPPKPKDTLMISRTPEVTCVVVDVSHEDPEVKFNWYVDGVEVHNAKTKPREEQYNSTYRVVSVLTVLHQDWLNGKEYKCAVSNKALPAPIEKTISKAKGQPREPQVYTLPPSRDELTKNQVSLTCLVKGFYPSDIAVEWESNGQPENNYKTTPPVLDSDGSFFLYSKLTVDKSRWQQGNVFSCSVMHEALHNHYTQKSLSLSPGSGGGGSGGGGSGGGGSPSEVQLLESGGGLVQPGGSLRLSCAASGFTFSSYAMSWVRQAPGKCLEWVSAISGSGGSTYYADSVKGRFTISRDNSKNTLYLQMNSLRAEDTAVYYCARYYGGYYSAWMDYWGQGTLVTVSSGGGGSGGGGSGGGGSGGGGSDIQMTQSPSSLSASVGDRVTITCRASQSISSFLNWYQQKPGKAPKLLIYAASSLQSGVPSRFSGSGSGTDFTLTISSLQPEDSATYYCQQTYGYLHTFGCGTKLEIKR
notes: scFv-Fc-scFv (ADAPTIR) homodimer with stabilizing disulfide in the 1210 scFv
Broadly, the Kd is the constant that tells how readily two partners part at equilibrium. By koff is commonly meant the rate constant with which the complex falls apart. What is called kon is the second-order rate constant of association. Consider B1, for which the binding result in the assay with cynomolgus 5T4 on cells [1] was “binds”. Also, in assay [2], the Kd was 35 nM, the koff stood at 0.00072 s⁻¹ and the kon stood at 21000 M⁻¹ s⁻¹. Also, in assay [3], the dissociation constant Kd was found to be 73 nM, the koff was found to be 0.027 s⁻¹ and the kon amounted to 370000 M⁻¹ s⁻¹.

B2: ALG.APV-196 (bispecific antibody)
chain: B1 chain with H31Y, T527D, S529E, S670R, F672A, S723F
notes: scFv-Fc-scFv (ADAPTIR) homodimer
For the molecule B2, the binding result with human 5T4 on cells [4] and with cynomolgus 5T4 on cells [1] was “binds” in each case.

B3: ALG.APV-191 (bispecific antibody)
chain: B1 chain with S30D, H31Y, Q196H, S723F, R748S
notes: as for B2
Take B3: the binding result with human 5T4 on cells [5] and with cynomolgus 5T4 on cells [1] was “binds” throughout.

B4: ALG.APV-198 (bispecific antibody)
chain: B1 chain with T527D, S529E, S670R, F672A, S723F
notes: as for B2
Turning to B4, the binding result with human 5T4 on cells [4] and in the assay with cynomolgus 5T4 on cells [1] was “binds” in each case.

B5: ALG.APV-210 (bispecific antibody)
chain: EVQLLESGGGLVQPGGSLRLSCAASGFTFSHGSMYWVRQAPGKGLEWVSSISSGSGSTYYADSVKGRFTISHDNSKNTLYLQMNSLRAEDTAVYYCARSSYYGSYYSIDYWGQGTLVTVSSGGGGSGGGGSGGGGSGGGGSDIQMTQSPSSLSASVGDRVTITCRASQSISSYLNWYQQKPGKAPKLLIYAASSLQSGVPSRFSGSGSGTDFTLTISSLQPEDFATYYCQQYYDNLPTFGQGTKLEIKEPKSSDKTHTCPPCPAPEAAGAPSVFLFPPKPKDTLMISRTPEVTCVVVDVSHEDPEVKFNWYVDGVEVHNAKTKPREEQYNSTYRVVSVLTVLHQDWLNGKEYKCAVSNKALPAPIEKTISKAKGQPREPQVYTLPPSRDELTKNQVSLTCLVKGFYPSDIAVEWESNGQPENNYKTTPPVLDSDGSFFLYSKLTVDKSRWQQGNVFSCSVMHEALHNHYTQKSLSLSPGSGGGGSGGGGSGGGGSPSEVQLLESGGGLVQPGGSLRLSCAASGFTFSSYAMSWVRQAPGKCLEWVSAISGSGGSTYYADSVKGRFTISRDNSKNTLYLQMNSLRAEDTAVYYCARYYGGYYSAWMDYWGQGTLVTVSSGGGGSGGGGSGGGGSGGGGSDIQMTQSPSSLSASVGDRVTITCRASQSISSFLNWYQQKPGKAPKLLIYAASSLQSGVPSRFSGSGSGTDFTLTISSLQPEDSATYYCQQTYGYLHTFGCGTKLEIKR
notes: scFv-Fc-scFv (ADAPTIR) homodimer with stabilizing disulfide in the 1210 scFv; also called ALG.APV-223; 5T4-CD137 bispecific antibody
Usually EC50 stands for the concentration at which the effect is half-maximal. High values mean a need for much substance, low ones an effect from little substance. B5 showed an EC50 in assay [6] of 0.7 nM. The binding result in the assay with cynomolgus 5T4 on cells [7] is “binds”. In assay [2], the Kd is 79 nM, the koff is 0.0012 s⁻¹ and the kon is 15000 M⁻¹ s⁻¹. Besides, in assay [3], the Kd worked out at 59 nM, the koff turned out to be 0.033 s⁻¹ and the kon is 550000 M⁻¹ s⁻¹.
